The Human Domainome abundance scans (Beltran et al. 2025)

B1: Membrane-associated guanylate kinase, WW and PDZ domain-containing protein 2, residues 601 to 682; numbered along this chain, Q86UL8 (parent)
chain: AELMTLTIVKGAQGFGFTIADSPTGQRVKQILDIQGCPGLCEGDLIVEINQQNVQNLSHTEVVDILKDCPIGSETSLIIHRG
B2: Endonuclease CUE2, residues 9 to 47; numbered along this chain, P36075 (parent)
chain: HESKLSILMDMFPAISKSKLQVHLLENNNDLDLTIGLLL

Variants of: B1
Experiment: abundance fitness (aPCA) (normalised: wild type 0, dead -1); higher = more abundant; growth selection in yeast, the domain comes from the species named
Conditions: Homo sapiens

Abundance fitness of substitutions, site by site:
E2: M -0.001 | K -0.093 | S -0.061 | F -0.113 | Q -0.066
Q13: G 0 | I -0.218 | D -0.062 | S -0.027 | E 0.016 | A -0.037 | K -0.06 | H -0.161 | W -0.101 | P -0.001 | Y -0.096 | C -0.06 | R -0.017 | V -0.067 | T -0.038 | F -0.084 | M -0.104
T5: K -0.024 | N 0.03 | V -0.088 | H -0.139 | P -0.033 | F -0.217 | M 0.029 | A -0.098 | G -0.121 | Q -0.088 | D -0.024 | W -0.208 | E -0.092 | I -0.169 | R -0.167 | C -0.142 | L -0.101 | Y -0.159 | S 0.02
V9: R -0.052 | L -0.139 | W -0.072 | Y -0.039 | C -0.12 | N -0.207 | G -0.077 | K -0.128 | D -0.184 | H -0.222 | S -0.102 | P -0.135 | A -0.082 | F -0.044 | M 0.003 | E -0.088 | T -0.011 | I -0.087 | Q -0.071
G16: F -0.101 | A -0.144 | E -0.059 | D 0.071 | H -0.044 | I -0.268 | C -0.002 | K -0.029
A1: C -0.015 | V 0.093 | F -0.589 | W -0.397 | R 0.216 | E -0.024 | D -0.198 | G -0.113
L6: R -0.123 | W -0.147 | A -0.124 | K -0.098 | E -0.193 | V -0.021 | G -0.315 | P -0.204 | Y -0.064 | Q -0.083 | I 0.008 | F 0.003 | N -0.166 | T -0.059 | H 0.007 | S -0.075 | M -0.059 | C 0.038 | D -0.366

Variants of: B2
Experiment: as above
Conditions: Saccharomyces cerevisiae (strain ATCC 204508 / S288c)

Abundance fitness, by site and new letter:
I35: T -0.053 | P -0.8 | Y -0.174 | M -0.065 | V -0.067 | S -0.153 | R 0.07 | W -0.483 | N -0.532
L37: M -0.042 | D -0.049 | A 0.055 | R 0.081 | T 0.098 | E 0.001 | K 0.045 | P -0.099 | N -0.003 | V -0.054 | W -0.128 | G -0.014 | S 0.026 | Q -0.016 | Y 0.007 | C 0.06 | H -0.034
L38: M -0.054 | D -0.1 | T -0.628 | E -0.568 | K -0.983 | V -0.27 | Q -0.664 | P -0.497 | G -0.557 | C -0.116 | N -0.471 | A -0.375 | W -1.02 | R -0.792 | S -0.768
L39: V -0.046 | N 0.081 | K 0.33 | R 0.276 | S 0.1 | Q 0.132 | T 0.122 | F -0.084 | M 0.167 | I -0.182 | G 0.122 | P -0.199 | E 0.154 | H -0.062 | W -0.066
G36: V -0.383 | M -0.291 | F -0.14 | Y -0.447 | D 0.058 | P -0.056 | A 0.025 | W -0.452 | S 0.092 | K 0.076 | Q 0.004 | N -0.054 | L -0.438 | E 0.067 | T 0.021 | C -0.042
